Source: patent US20200165312A1, “COSMETIC COMPOSITION FOR IMPROVING SKIN CONDITIONS COMPRISING FUSION PROTEIN INCLUDING SKIN PENETRATION ENHANCING PEPTIDE” (LG HOUSEHOLD & HEALTH CARE LTD., priority 2017, published 2020)

What was measured:
[1] = Skin penetrability of growth factor fusion proteins (Franz glass cell, ELISA); assay type: in vitro ADME, porcine; conditions: for Penetrated amount (%): 2 μg, 16 hours
Experimental: (§1) Specifically, porcine skin (thickness: 0.7 mm, Medikinetics) was placed between upper and lower ends of Franz glass cell (standard diameter: 9 mm, Receiver 5 mL, Permegear), and TBS (50 mM Tris pH 7.5, 150 mM NaCl) including 1% BSA and 0.01% Tween 20 was prepared. Then, 500 μL of the TBS was applied to the upper end of the glass cell (Donor chamber), and 5 mL of the TBS was applied to the lower end of the glass cell, (Receiver chamber). Subsequently, 2 μg of PDGFa or T-PDGFa was applied to the upper end of the glass cell, followed by reaction for 16 hours. Then, a concentration of PDGFa or T-PDGFa was quantitatively analyzed using the ELISA kit (R&D Systems), and a relative amount of T-PDGFa to PDGFa was calculated as a penetrated amount (Table 7).
Specifically, porcine skin (thickness: 0.7 mm, Medikinetics) was placed between upper and lower ends of Franz glass cell (standard diameter: 9 mm, Receiver 5 mL, Permegear), and TBS (50 mM Tris pH 7.5, 150 mM NaCl) including 1% BSA and 0.01% Tween 20 was prepared. Then, 500 μL of the TBS was applied to the upper end of the glass cell (Donor chamber), and 5 mL of the TBS was applied to the lower end of the glass cell, (Receiver chamber).
as §1, with “IGF-1” for “PDGFa”, “T-IGF-1” for “T-PDGFa”, “16).” for “7).”
as §1, with “KGF” for “PDGFa”, “T-KGF” for “T-PDGFa”, “20).” for “7).”
as §1, with “Tβ4” for “PDGFa”, “T-Tβ4” for “T-PDGFa”, “24).” for “7).”

[2] = Skin retentivity of growth factor fusion proteins (porcine skin disrupted, ELISA); assay type: in vitro ADME; conditions: for Remaining amount (%): skin after 16 hours penetration test
Experimental: Specifically, the porcine skin remained after the experiment of Example 3-2-4 was recovered, frozen in liquid nitrogen, and disrupted. An amount of PDGFa or T-PDGFa contained therein was quantitatively analyzed using the ELISA kit (R&D Systems). In addition, a relative amount of T-PDGFa to PDGFa was calculated as a remaining amount (Table 8).
Specifically, the porcine skin remained after the experiment of Example 3-3-4 was recovered, frozen in liquid nitrogen, and disrupted. An amount of VEGF or T-VEGF contained therein was quantitatively analyzed using the ELISA kit (R&D Systems).
Specifically, the porcine skin remained after the experiment of Example 3-4-4 was recovered, frozen in liquid nitrogen, and disrupted. An amount of IGF-1 or T-IGF-1 contained therein was quantitatively analyzed using the ELISA kit (R&D Systems). In addition, a relative amount of T-IGF-1 to IGF-1 was calculated as a remaining amount (Table 17).
Specifically, the porcine skin remained after the experiment of Example 3-5-3 was recovered, frozen in liquid nitrogen, and disrupted. An amount of KGF or T-KGF contained therein was quantitatively analyzed using the ELISA kit (R&D Systems). In addition, a relative amount of T-KGF to KGF was calculated as a remaining amount (Table 21).
Specifically, the porcine skin remained after the experiment of Example 3-6-3 was recovered, frozen in liquid nitrogen, and disrupted. An amount of Tβ4 or T-Tβ4 contained therein was quantitatively analyzed using the ELISA kit (R&D Systems). In addition, a relative amount of T-Tβ4 to Tβ4 was calculated as a remaining amount (Table 25).

PDGFa: platelet-derived growth factor subunit a having an amino acid sequence of SEQ ID NO: 35
Penetrated amount (%) ([1]; relative to PDGFa): 100 ± 29% | Remaining amount (%) ([2]; relative to PDGFa): 100 ± 20%

Tβ4: thymosin beta 4 having an amino acid sequence of SEQ ID NO: 47
Penetrated amount (%) ([1]; relative to Tβ4): 100 ± 21% | Remaining amount (%) ([2]; relative to Tβ4): 100 ± 17%

IGF-1: insulin-like growth factor-1 having an amino acid sequence of SEQ ID NO: 41
Penetrated amount (%) ([1]; relative to IGF-1): 100 ± 14% | Remaining amount (%) ([2]; relative to IGF-1): 100 ± 28%

T-Tβ4: SEQ ID NO: 1 peptide C-terminal linked to N-terminal of Tβ4 via GG linker (NGSLNTHLAPILGGSDKPDMAEIEKFDKSKLKKTETQEKNPLPSKETIEQEKQAGES; Synthetic Fusion protein of T-T beta 4)
Penetrated amount (%) ([1]; relative to Tβ4): 310 ± 28% | skin penetrability compared with the unfused protein ([1]; summary of Tables 7, 12, 16, 20, 24): about three times higher | Remaining amount (%) ([2]; relative to Tβ4): 9,600 ± 450% | skin retentivity higher than the unfused protein ([2]; summary of Tables 8, 13, 17, 21, 25): about 100 times
